Measured values taken from patent US20250276050A1.

B1: cIL-13-His6 (canine IL-13 with start methionine and C-terminal His6-tag, expressed in E. coli) (ligand)
chain: MSPSPVTPSPTLKELIEELVNITQNQASLCNGSMVWSVNLTAGMYCAALESLINVSDCSAIQRTQRMLKALCSQKPAAGQISSERSRDTKIEVIQLVKNLLTYVRGVYRHGNFRHHHHHH

Tests used:
[1] = molecular target: heterodimeric IL-1RL1/IL-1RAcP on the surface of HEK-Blue IL-33 cells (human) (UniProt Q01638); experiment: cell-based or functional assay
[2] = molecular target: receptor subunits IL4Rα and IL-13Rα1 naturally expressed on HEK-Blue IL-4/IL-13 cells (UniProt P24394); experiment: cell-based or functional assay

Row | Molecule | SEAP reporter enzyme readout, EC50 (HEK-Blue IL-33 cells) [1] [ng/mL] | SEAP reporter enzyme readout, EC50 (HEK-Blue IL-4/IL-13 cells) [2] [ng/mL]
1 | His6-cIL-33-CS (amino acids 110-263 of dog IL-33 with the 3 cysteines replaced by serine, start methionine and N-terminal His6-tag, expressed in E. coli) (from UniProt O97863 110-263) (ligand) | 10 | 
2 | B1 |  | 2
